# Measurements taken from patent publication US20220380456A1 (UNITED KINGDOM RESEARCH AND INNOVATION, published 2022).
# Legend:
# [1] = target: T1, His6-TEV-MSP1D1 (CA15914) (human Apo A-I derived, engineered, biotinylated with EZ-link NHS-Biotin for the BLI experiment only); experiment: ELISA, periplasmic extract on coated MSP (1 µg/mL in 100 µL, Apo- and Nanodisc-state), EPEA-tag detection, OD405 after 1 h
# T1 construct: Membrane scaffold protein; The entry holds the 6xHis tag, the TEV cleavage site and MSP1D1; Tested in Apo-state (lipid free) and in Nanodisc-state (POPC nanodisc, two MSP1D1 per nanodisc)
# T1 chain: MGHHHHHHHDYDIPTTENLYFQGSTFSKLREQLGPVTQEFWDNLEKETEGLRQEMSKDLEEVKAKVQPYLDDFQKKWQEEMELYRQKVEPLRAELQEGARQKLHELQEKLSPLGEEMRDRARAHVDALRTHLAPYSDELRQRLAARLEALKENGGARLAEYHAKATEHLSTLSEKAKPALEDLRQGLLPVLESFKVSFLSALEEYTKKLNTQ
# Experimental: (§1) Nanobodies were detected after 1 h (FIG. 2A) and overnight (FIG. 2B) subsequent incubation with a biotinylated CaptureSelect antibody and developed with a Streptavidin Alkaline Phosphatase conjugate.
# [2] = target: T2, His6-TEV-MSP2N2 (CA15915) (human Apo A-I derived, engineered, UniProt P02647 79-267, limits assumed); experiment: as above
# T2 construct: Membrane scaffold protein; The entry holds the 6xHis tag, the TEV cleavage site and MSP2N2; Tested in Apo-state, in Nanodisc-state, and as the belt of nanodiscs loaded with GABAAR-β3
# Experimental: as §1
# [3] = target: T2, His6-TEV-MSP2N2 (CA15915); experiment: ELISA, periplasmic extract on coated MSP (1 µg/mL in 100 µL, Apo- and Nanodisc-state), EPEA-tag detection, OD405 after overnight
# Experimental: as §1
# [4] = target: T1, His6-TEV-MSP1D1 (CA15914); experiment: as above
# Experimental: as §1
# [5] = target: T3, MSP1E3D1 (human Apo A-I derived, engineered); experiment: ELISA on coated MSP variants, n=3
# T3 construct: also called MSP1E1D3 MSP variant
# T3 chain: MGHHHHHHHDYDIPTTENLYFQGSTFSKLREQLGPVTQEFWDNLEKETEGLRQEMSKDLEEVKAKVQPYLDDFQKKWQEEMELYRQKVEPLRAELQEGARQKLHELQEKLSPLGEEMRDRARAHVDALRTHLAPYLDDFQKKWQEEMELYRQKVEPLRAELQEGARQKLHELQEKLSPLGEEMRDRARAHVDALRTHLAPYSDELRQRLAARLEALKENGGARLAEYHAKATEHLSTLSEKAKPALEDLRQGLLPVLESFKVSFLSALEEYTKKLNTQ
# [6] = target: T1, His6-TEV-MSP1D1 (CA15914); experiment: ELISA, purified MegaBody 200 nM on coated MSP (1 µg/mL in 100 µL, Apo- and Nanodisc-state), EPEA-tag detection, OD405 after 1 h
# [7] = target: T2, His6-TEV-MSP2N2 (CA15915); experiment: as above
# [8] = target: T1, His6-TEV-MSP1D1 (CA15914); experiment: ELISA, purified MegaBody on coated MSP (Apo- or Nanodisc-state) vs non-coated wells, A405
# [9] = target: T2, His6-TEV-MSP2N2 (CA15915); experiment: as above
Binder,binding result [1],binding result [2],other results
"MP1522_B9 Nanobody (CA15888) (VHH, Entry includes 6xHis and EPEA tags; tested as periplasmic extract) VHH: QVQLVESGGGLVQAGGSLRLSCVRSARTFGSVAMGWFRQAPGKEREFVTAIDWSGSNTLYADSVKGRFTISRDNAKNTVYLQMNSLKPDDTAVYYCAASRRVVVTTSDFDSWGQGTQVTVSS",binds,binds,
"MP1522_A5 Nanobody (CA15892) (VHH, Entry includes 6xHis and EPEA tags; tested as periplasmic extract) VHH: QVQLVESGGGLVQPGGSLRLSCAASGFAFSNSYMSWVRQAPGKGPEWVSSISPSAWIITHGDSVKGRFTISRDNAKNTLYLQMNHLKPEDAALYYCARRQGYDGYVPSRDYWGQGTQVTVSS",binds,binds,
"MP1521_E4 Nanobody (CA15889) (VHH, Entry includes 6xHis and EPEA tags; tested as periplasmic extract) VHH: QVQLVESGGGLVQAGGSLRLSCAASGRTFGSTFMGWFRQAPGKERDFVASITWNRGLTTYADSVKGRFTISRDSAKNTVDLQMNNLKPEDTAVYYCVLGMGTSFASWGQGTQVTVSS",binds,binds,
"MP1521_G9 Nanobody (CA15884) (VHH, Entry includes 6xHis and EPEA tags; tested as periplasmic extract) VHH: QVQLVESGGGSVQAGGSLRLSCAASGRTFSTYRMGWFRQAPGKEREFVAGWNSINIYYADSVKGRFTISGDNAKSTVYLQMNSLKPEDTAVYYCAARGLGQTEYNYWGQGTQVTVSS",binds,,binding result [3]: binds
"MP1522_B7 Nanobody (CA15886) (VHH, Entry includes 6xHis and EPEA tags; tested as periplasmic extract) VHH: QVQLVESGGGLVQAGGSLRLSCAASGRSFSSYGMGWFRQAPGKEREFAAGITGTAGITYYTDSVKGRFTISRDNAKNTVYLQMNNLKPEDTAVYYCAAGLTSYAGRGAAGYDYWGQGTQVTVSS",,,binding result [4]: binds; binding result [3]: binds
"MP1522_A12 Nanobody (CA15885) (VHH, Entry includes 6xHis and EPEA tags; tested as periplasmic extract) VHH: QVQLVESGGGLVQAGGSLRLSCAASGRTFSSYNMAWFRQVPGKEREFVASIARTGSGTYYRDSVKGRFTISRDNAKNTVYLQMNSLKPQDTAVYYCTAGGSLATISDYWGQGTQVTVSS",,,binding result [4]: binds; binding result [3]: binds
"MegaBody MbNb25^c7HopQ against GABAAR-β3 (other, MegaBody derived from Nb25 with the c7HopQ scaffold) QVQLVESGGGLVQTKTTTSVIDTTNDAQNLLTQAQTIVNTLKDYCPILIAKSSSSNGGTNNANTPSWQTAGGGKNSCATFGAEFSAASDMINNAQKIVQETQQLSANQPKNITQPHNLNLNSPSSLTALAQKMLKNAQSQAEILKLANQVESDFNKLSSGHLKDYIGKCDASAISSANMTMQNQKNNWGNGCAGVEETQSLLKTSAADFNNQTPQINQAQNLANTLIQELGNNTYEQLSRLLTNDNGTNSKTSAQAINQAVNNLNERAKTLAGGTTNSPAYQATLLALRSVLGLWNSMGYAVICGGYTKSPGENNQKDFHYTDENGNGTTINCGGSTNSNGTHSYNGTNTLKADKNVSLSIEQYEKIHEAYQILSKALKQAGLAPLNSKGEKLEAHVTTSKYGSLRLSCAASGHTFNYPIMGWFRQAPGKEREFVGAISWSGGSTSYADSVKDRFTISRDNAKNTVYLEMNNLKPEDTAVYYCAAKGRYSGGLYYPTNYDYWGQGTQVTVSSHHHHHHEPEA",,,binding result [5]: no binding; binding result [6]: no binding (tested: 200 nM); binding result [7]: no binding (tested: 200 nM)
"MP1522_C10 Nanobody (CA15891) (VHH, Entry includes 6xHis and EPEA tags; tested as periplasmic extract) VHH: QVQLVESGGGLVQAGGSLRLACAASGRTSGSYAIGWFRQAPGKEREFAAAISFTAGVTYYSNSVKGRFTISRDSAKNTAYLQMNTLKPEDTAVYYCATLPSLVLILTAKPNIGYWGQGTQVTVSS",binds,binds,
"MP1521_E1 Nanobody (CA15896) (VHH, Entry includes 6xHis and EPEA tags; tested as periplasmic extract) VHH: QVQLVESGGGLVQPGGSLRLSCAASGTITRSPTMSWARQAPGRQREWVTSILGTGRTDYADSVKGRFTISRDNANNTVYLQMNNLKPEDSAVYYCYTVLNGRPSWGQGTQVTVSS",binds,binds,
"MP1521_B9 Nanobody (CA15883) (VHH, Entry includes 6xHis and EPEA tags; tested as periplasmic extract) VHH: QVQLVESGGGLVQAGGSLRLSCAASGRTLCSIPMGWFRQAPGKEREFVAAIRWSGGSTYYADSVKGRFSISKDNAKNTVYLQMNNLKPEDTATYYCASAAPYSSWSRGLEYDYWGQGTQVTVSS",binds,binds,
"MP1521_B4 Nanobody (CA15893) (VHH, Entry includes 6xHis and EPEA tags; tested as periplasmic extract) VHH: QVQLVESGGGLVQPGGSLRLSCAASKSFFNIYDLAWYRQAPGKQRELVASITKVGSTNYADSVKGRFTTSRDNAKKTVYLQMNSLKPEDTAVYYCNLVSPGGVYNYWGQGTQVTVSS",binds,binds,
"MP1521_B1 Nanobody (CA15895) (VHH, Entry includes 6xHis and EPEA tags; tested as periplasmic extract) VHH: QVQLVESGGGLVQPGGSLRLSCTASGFSLSSSYMDWVRQAPGKGIEWVSTISPGGRITYAVSVEGRFTLSRDNAKNTLSLQMNELKPEDTAVYYCRRLGEKGQGTQVTVSS",binds,binds,
"MbNbE1^c7HopQ MegaBody (CA15909) (other, MegaBody: c7HopQ scaffold inserted in the first β-turn of Nanobody MP1521_E1; Entry includes 6xHis and EPEA tags) QVQLVESGGGLVQTKTTTSVIDTTNDAQNLLTQAQTIVNTLKDYCPILIAKSSSSNGGTNNANTPSWQTAGGGKNSCATFGAEFSAASDMINNAQKIVQETQQLSANQPKNITQPHNLNLNSPSSLTALAQKMLKNAQSQAEILKLANQVESDFNKLSSGHLKDYIGKCDASAISSANMTMQNQKNNWGNGCAGVEETQSLLKTSAADFNNQTPQINQAQNLANTLIQELGNNTYEQLSRLLTNDNGTNSKTSAQAINQAVNNLNERAKTLAGGTTNSPAYQATLLALRSVLGLWNSMGYAVICGGYTKSPGENNQKDFHYTDENGNGTTINCGGSTNSNGTHSYNGTNTLKADKNVSLSIEQYEKIHEAYQILSKALKQAGLAPLNSKGEKLEAHVTTSKYGSLRLSCAASGTITRSPTMSWARQAPGRQREWVTSILGTGRTDYADSVKGRFTISRDNANNTVYLQMNNLKPEDSAVYYCYTVLNGRPSWGQGTQVTVSSHHHHHHEPEA",,,fold ELISA signal over no MSP [8]: ≥ 4 fold; fold ELISA signal over no MSP [9]: ≥ 4 fold
"MP1521_H5 Nanobody (CA15890) (VHH, Entry includes 6xHis and EPEA tags; tested as periplasmic extract) VHH: QVQLVESGGGLVQPGGSLKLSCAASGFTFSTYSMSWVRQAPGKGLEWVSRILTDGGTTSYPDSVKGRFTISRDNAKNTLYLQMNNLKPEDTAVYYCARGWPSDGYSGGYRGQGTQVTVSS",binds,binds,
"MP1521_F3 Nanobody (CA15894) (VHH, Entry includes 6xHis and EPEA tags; tested as periplasmic extract; also called Nb F3) VHH: QVQLVESGGGLVQPGGSLRLSCAASGSGFGPNVMGWYRQAPGKRRELVATINRIGNINYGDSVKGRFTLSREIAVNTVYLQMNSLKPEDAANYYCYAAKYGVDYWGKGTQVTVSS",binds,binds,
"MbNbB1^c7HopQ MegaBody (CA15908) (other, MegaBody: c7HopQ scaffold inserted in the first β-turn of Nanobody MP1521_B1; Entry includes 6xHis and EPEA tags) QVQLVESGGGLVQTKTTTSVIDTTNDAQNLLTQAQTIVNTLKDYCPILIAKSSSSNGGTNNANTPSWQTAGGGKNSCATFGAEFSAASDMINNAQKIVQETQQLSANQPKNITQPHNLNLNSPSSLTALAQKMLKNAQSQAEILKLANQVESDFNKLSSGHLKDYIGKCDASAISSANMTMQNQKNNWGNGCAGVEETQSLLKTSAADFNNQTPQINQAQNLANTLIQELGNNTYEQLSRLLTNDNGTNSKTSAQAINQAVNNLNERAKTLAGGTTNSPAYQATLLALRSVLGLWNSMGYAVICGGYTKSPGENNQKDFHYTDENGNGTTINCGGSTNSNGTHSYNGTNTLKADKNVSLSIEQYEKIHEAYQILSKALKQAGLAPLNSKGEKLEAHVTTSKYGSLRLSCTASGFSLSSSYMDWVRQAPGKGIEWVSTISPGGRITYAVSVEGRFTLSRDNAKNTLSLQMNELKPEDTAVYYCRRLGEKGQGTQVTVSSHHHHHHEPEA",,,fold ELISA signal over no MSP [8]: ≥ 4 fold; fold ELISA signal over no MSP [9]: ≥ 4 fold
